From publication PMC10209032, “Molecular determinants for Rous sarcoma virus intasome assemblies involved in retroviral integration” come the findings set out here.

Data set [1] deals with Rous sarcoma virus (RSV) integrase, WT full-length IN (1–286 aa), Prague A (Rous sarcoma virus (Prague A)). Nature of the data set: not stated; oligomeric state of free purified IN proteins, without DNA; shown in Fig. S5, method and conditions not given.
The target of data set [2] is Rous sarcoma virus integrase IN (1–278), C-terminal tail truncation (Rous sarcoma virus (Prague A)). Briefly: cryo-EM structure; STC intasome assembled from IN (1–278) 35 μM and the viral/target DNA substrate 10 μM by dialysis, purified by SEC in 20 mM HEPES pH 7.5, 650 mM NaCl, 1 mM TCEP; single particle, C2 symmetry, 3.36 Å; the IN oligomer stands on two DNA substrates.

Data set [3] has as its target Rous sarcoma virus integrase IN (1–286) R244A (Rous sarcoma virus (Prague A)). Nature of the data set: not stated; oligomeric state of free purified IN proteins, without DNA; shown in Fig. S5, method and conditions not given.
The target in data set [4] is Rous sarcoma virus integrase IN (1–286) R244E (Rous sarcoma virus (Prague A)). The data set is described as above.
Data set [5] concerns the target Rous sarcoma virus integrase IN (1–286) Y246A (Rous sarcoma virus (Prague A)). The description is as above.
In data set [6] the target is T1, RSV IN (1-278) (Rous sarcoma virus, Prague A, UniProt P03354 1281-1558).
T1 sequence: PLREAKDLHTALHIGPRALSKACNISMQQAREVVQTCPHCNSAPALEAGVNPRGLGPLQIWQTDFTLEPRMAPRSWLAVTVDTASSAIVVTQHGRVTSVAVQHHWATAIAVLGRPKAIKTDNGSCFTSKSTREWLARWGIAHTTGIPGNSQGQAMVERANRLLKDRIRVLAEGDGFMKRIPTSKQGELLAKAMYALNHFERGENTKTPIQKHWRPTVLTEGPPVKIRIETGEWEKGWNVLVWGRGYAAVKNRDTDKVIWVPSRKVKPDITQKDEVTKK
Nature of the data set: cryo-EM (3.36 A); SEC; Zn2+ and Mg2+ listed in structure table; octameric STC; STC (IN 1-278, cryo-EM prep): 35 uM IN + 10 uM DNA in 20 mM HEPES pH 7.5, 1 M NaCl, 20% glycerol, 1 mM TCEP, dialyzed to 0.125 M NaCl, solubilized at 0.75 M NaCl; SEC in 20 mM HEPES pH 7.5, 650 mM NaCl, 1 mM TCEP. Mutant STC 18 h at 4 C; CSC with MK-2048 18 h at 18 C (buffer not in material). The note with it: protein: recombinant; chain copies: 8; branched; S2 pairs with S1[1-20] leaving 5' AA unpaired; S3 pairs with S1[27-42]; self-complementary S1[21-26]; GTGCAC pairs two copies; 2 copies of each strand in STC.

Take “Rous sarcoma virus (RSV) integrase, WT full-length IN (1–286 aa), Prague A (enzyme)”: in data set [1], the stoichiometry N is 2.

“Rous sarcoma virus integrase IN (1–278), C-terminal tail truncation (enzyme)” yielded a stoichiometry N in data set [2] of 8.

Take “Rous sarcoma virus integrase IN (1–286) R244A (enzyme)”: the stoichiometry N in data set [3] is 2.

“Rous sarcoma virus integrase IN (1–286) R244E (enzyme)”: the stoichiometry N in data set [4] came out at 2.

“Rous sarcoma virus integrase IN (1–286) Y246A (enzyme)” had a stoichiometry N in data set [5] of 2.

B1: RSV STC substrate (viral/target DNA) (mixed)
DNA 1: GAGTATTGCATAAGACAACAGTGCACGAAAGAAGAAGACACT
DNA 2: AATGTTGTCTTATGCAATACTC
DNA 3: AGTGTCTTCTTCTTTC
With B1, the binding result in data set [6] is “binds”.
